The results in this text go back to PMC9855357, “Different Forms of Disorder in NMDA-Sensitive Glutamate Receptor Cytoplasmic Domains Are Associated with Differences in Condensate Formation” (Biomolecules, 2022).

The target of this assay is T1, Full-length PSD-95 (post synaptic density protein of 95 kDa) (Rattus norvegicus, UniProt P31016 1-724).
T1 construct: PSD-95, Rattus norvegicus, full length
As to the kind of experiment: co-sedimentation; ternary mixture 1:1:1 of PSD-95, CC-PBM and CTD2A or CTD2B, 20 µM each, 20 mM tris-HCl, 150 mM NaCl, pH 7.4, 25 °C for 5 min, 13,200 x g for 1 min; supernatant and pellet on SDS-PAGE, Coomassie. The following applies: both partners purified.

T1 sequence (P31016 whole entry): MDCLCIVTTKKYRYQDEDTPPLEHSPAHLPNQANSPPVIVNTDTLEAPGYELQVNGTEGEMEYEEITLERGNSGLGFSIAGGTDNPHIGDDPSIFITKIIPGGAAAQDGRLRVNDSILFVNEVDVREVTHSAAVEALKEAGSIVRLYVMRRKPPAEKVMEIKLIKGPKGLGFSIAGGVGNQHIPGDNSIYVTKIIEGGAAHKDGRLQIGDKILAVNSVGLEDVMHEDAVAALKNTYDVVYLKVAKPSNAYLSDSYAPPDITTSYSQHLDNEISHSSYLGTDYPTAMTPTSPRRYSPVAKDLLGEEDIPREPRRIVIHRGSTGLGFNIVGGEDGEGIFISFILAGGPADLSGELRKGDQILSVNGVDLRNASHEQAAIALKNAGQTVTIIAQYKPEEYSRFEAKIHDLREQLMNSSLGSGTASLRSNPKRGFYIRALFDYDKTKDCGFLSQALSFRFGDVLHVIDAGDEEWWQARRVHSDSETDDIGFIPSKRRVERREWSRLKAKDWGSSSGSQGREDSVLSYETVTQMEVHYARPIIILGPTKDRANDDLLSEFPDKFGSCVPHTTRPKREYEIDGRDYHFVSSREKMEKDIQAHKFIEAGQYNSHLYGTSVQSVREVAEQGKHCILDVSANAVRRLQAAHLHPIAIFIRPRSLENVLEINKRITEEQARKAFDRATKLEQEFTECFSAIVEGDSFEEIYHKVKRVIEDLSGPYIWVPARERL

B1: C-terminal domain 2 (CTD2) of GluN2B (residues 1259–1482) (domain or fragment, Rattus norvegicus, UniProt Q00960 1259-1482, looked up)
chain: SLQELDQPAAPVAVTSNASSTKYPQSPTNSKAQKKNRNKLRRQHSYDTFVDLQKEEAALAPRSVSLKDKGRFMDGSPYAHMFEMPAGESSFANKSSVPTAGHHHNNPGSGYMLSKSLYPDRVTQNPFIPTFGDDQCLLHGSKSYFFRQPTVAGASKTRPDFRALVTNKPVVVTLHGAVPGRFQKDICIGNQSNPCVPNNKNPRAFNGSSNGHVYEKLSSIESDV
notes: GluN2B subunit of the NMDA receptor, Rattus norvegicus, C-terminal domain 2, residues 1259-1482; Expressed from pPROEX HTB; the His tag was removed with TEV protease; also called CTD2B; GluN2B CTD2; not shown: His6, N-terminal, cleaved
For the molecule B1, the binding result is given as “binds”.
